# Legend:
# [1] = Luminescence activity assay of purified Gaussia luciferase mutants on coelenterazine; assay type: biochemical; parameters: key to Activity of mutant relative to wild-type Gaussia luciferase without the signal peptide: ratio of mutant luminescence intensity to wild-type Gaussia luciferase; conditions: Substrate CTZ (Table 16)
# Experimental: (§1) In this Example, the protein concentration was determined with a BCA quantitative kit (Thermo Scientific™ Pierce™ BCA Protein Assay Kit) accurately. The purified luciferase obtained in Example 5 was diluted with diluent (50 mM Tris-HCl, pH 8.0, 100 mM NaCl, 0.1% (v/v) Tween-20) to 1 μg/mL. The diluted luciferase, taken for 10 μL, was moved into a black 96-well plate, then added with 90 μL of the substrates coelenterazine, fluoro-coelenterazine or coelenterazine derivative ZS2 (purchased from Biolab) which was diluted into 100 μM with the same diluent, and the luminescence intensity of the plate was read with a self-luminescence module of a microplate reader. The mutation site of the mutant, the measured luminescence intensity, the ratio of luminescence intensities of the advantageous mutants to the wild-type Gaussia luciferase without the signal peptide having the sequence shown in SEQ ID NO: 3 are shown in Table 15. The results of catalytic activity assay of the advantageous mutants relative to the wild-type Gaussia luciferase without the signal peptide having the sequence shown in SEQ ID NO: 3 on substrate coelenterazine are shown in FIG. 6. […] The results of catalytic activity assay of the advantageous mutants relative to the wild-type Gaussia luciferase without the signal peptide having the sequence shown in SEQ ID NO: 3 on substrate fluoro-coelenterazine are shown in FIG. 7.
# (§2) The new mutant library constructed in Example 7 was screened and tested for substrate specificity. Expression and purification schemes were the same as that in Example 5, and the activity assay scheme was the same as that in Example 6. The respective catalytic activities of combinatorial mutants on coelenterazine, fluoro-coelenterazine or coelenterazine derivative ZS2, and coelenterazine derivative ZS26 (purchased from BIOLAB) were assayed, and comparisons among the substrate specificities of the combinatorial mutants were based on the ratios of catalytic activities on two corresponding substrates.
# [2] = Luminescence activity assay of purified Gaussia luciferase mutants on coelenterazine derivative ZS2; assay type: biochemical; parameters: key to Activity of mutant relative to wild-type Gaussia luciferase without the signal peptide: ratio of mutant luminescence intensity to wild-type Gaussia luciferase; conditions: Substrate ZS2 (Table 16)
# Experimental: as §1, §2
Activity of mutant relative to wild-type Gaussia luciferase without the signal peptide [1],Activity of mutant relative to wild-type Gaussia luciferase without the signal peptide [2],Molecule
1.308,0.128,"F26R N27D V29C A30G V31L A32D S33V A36V T37S: Gaussia luciferase mutant (protein, SIGNAL (1)..(17), Gaussia luciferase mutant) MGVKVLFALICIAVAEAKPTENNEDRDICGLDVNFVSTDLDADRGKLPGKKLPLEVLKEMEANARKAGCTRGCLICLSHIKCTPKMKKFIPGRCHTYEGDKESAQGGIGEAIVDIPEIPGFKDLEPMEQFIAQVDLCVDCTTGCLKGLANVQCSDLLKKWLPQRCATFASKIQGQVDKIKGAGGD"
0.940,1.995,"F26T N27N V29E V31I A32G S33V A36R T37G L40G: Gaussia luciferase mutant (protein, SIGNAL (1)..(17), Gaussia luciferase mutant) MGVKVLFALICIAVAEAKPTENNEDTNIEAIGVNFRGTDGDADRGKLPGKKLPLEVLKEMEANARKAGCTRGCLICLSHIKCTPKMKKFIPGRCHTYEGDKESAQGGIGEAIVDIPEIPGFKDLEPMEQFIAQVDLCVDCTTGCLKGLANVQCSDLLKKWLPQRCATFASKIQGQVDKIKGAGGD"
1.017,1.781,"F26R V29F A30D V31L S33G T37D L40A: Gaussia luciferase mutant (protein, SIGNAL (1)..(17), Gaussia luciferase mutant) MGVKVLFALICIAVAEAKPTENNEDRNIFDLAGNFADTDADADRGKLPGKKLPLEVLKEMEANARKAGCTRGCLICLSHIKCTPKMKKFIPGRCHTYEGDKESAQGGIGEAIVDIPEIPGFKDLEPMEQFIAQVDLCVDCTTGCLKGLANVQCSDLLKKWLPQRCATFASKIQGQVDKIKGAGGD"
0.423,0.115,"F26R V29R A30V V31L S33G A36V T37R: Gaussia luciferase mutant (protein, SIGNAL (1)..(17), Gaussia luciferase mutant) MGVKVLFALICIAVAEAKPTENNEDRNIRVLAGNFVRTDLDADRGKLPGKKLPLEVLKEMEANARKAGCTRGCLICLSHIKCTPKMKKFIPGRCHTYEGDKESAQGGIGEAIVDIPEIPGFKDLEPMEQFIAQVDLCVDCTTGCLKGLANVQCSDLLKKWLPQRCATFASKIQGQVDKIKGAGGD"
0.453,2.460,"F26R V29D A30G A32D A36I T37A L40R: Gaussia luciferase mutant (protein, SIGNAL (1)..(17), Gaussia luciferase mutant) MGVKVLFALICIAVAEAKPTENNEDRNIDGVDSNFIATDRDADRGKLPGKKLPLEVLKEMEANARKAGCTRGCLICLSHIKCTPKMKKFIPGRCHTYEGDKESAQGGIGEAIVDIPEIPGFKDLEPMEQFIAQVDLCVDCTTGCLKGLANVQCSDLLKKWLPQRCATFASKIQGQVDKIKGAGGD"
1.067,0.787,"F26S V29L A30G S33R T37K L40A: Gaussia luciferase mutant (protein, SIGNAL (1)..(17), Gaussia luciferase mutant) MGVKVLFALICIAVAEAKPTENNEDSNILGVARNFAKTDADADRGKLPGKKLPLEVLKEMEANARKAGCTRGCLICLSHIKCTPKMKKFIPGRCHTYEGDKESAQGGIGEAIVDIPEIPGFKDLEPMEQFIAQVDLCVDCTTGCLKGLANVQCSDLLKKWLPQRCATFASKIQGQVDKIKGAGGD"
